Experimental findings from US20210380703A1 (RIGEL PHARMACEUTICALS, published 2021) are described below.

Residue numbers refer to the chain shown, from its start.

To fix the notation:
B1: 376_B06 (antibody, V domains shown)
VH: EVQLLESGGGLVQPGGSLRLSCAASGFTFSSYSMNWVRQAPGKGLEWVAGINYNSGYKGYADSVKGRFTISRDNSKNTLYLQMNSLRAEDTAVYYCARSATWHDTHLDYWGQGTLVTVSS
VL: DIQMTQSPSSLSASVGDRVTITCRASQSILTYLNWYQQKPGKAPKLLIYAATSRASGVPSRFSGSGSGTDFTLTISSLQPEDFATYYCQQSYDLPLTFGGGTKVEIK
B2: 366_A05 (antibody, V domains shown)
VH: B1 VH with K58T
VL: B1 VL with L33V, L47V, R54L, D93N, L94T
B3: 369_A10 (antibody, V domains shown)
VH: B1 VH with S30D, K58T
VL: B1 VL with T31S, D93E
B4: 369_G07 (antibody, V domains shown)
VH: B1 VH with S55G, K58T, G59S
VL: B1 VL with L33V, L47V, L94N
B5: 373_B11 (antibody, V domains shown)
VH: B1 VH with G50N
VL: B1 VL with T31S, L94N
B6: 376_B01 (antibody, V domains shown)
VH: B1 VH with S30D, S55G, K58T, G59S
VL: B1 VL with L33V, L47V, D93N
B7: 374_C11 (antibody, V domains shown)
VH: B1 VH
VL: B1 VL with D93E, L94S
B8: 375_A06 (antibody, V domains shown)
VH: B1 VH
VL: B1 VL with L33V, T52S, R54L, A55Q, D93S, L94T
B9: 367_G07 (antibody, V domains shown)
VH: B1 VH with S30D, G50N, S55G, K58T
VL: B1 VL with L33V, L94N
B10: 373_E06 (antibody, V domains shown)
VH: B1 VH with S30D, G59S
VL: B1 VL with T31R, R54L, A55H, L94N
B11: 373_G05 (antibody, V domains shown)
VH: B1 VH with S55G, K58T, G59S
VL: B1 VL with T31S, R54L, D93E
B12: 373_E02 (antibody, V domains shown)
VH: B1 VH with S30D, S33G, N35H, A49S, S55G
VL: not shown
B13: 375_C12 (antibody, V domains shown)
VH: B1 VH with G50N, S55G, K58T
VL: B1 VL
B14: 373_B08 (antibody, V domains shown)
VH: B1 VH with S30D, G50N
VL: B1 VL with L47V, R54L, D93E, L94N
B15: 374_C05 (antibody, V domains shown)
VH: B1 VH with S30D, G59S
VL: B1 VL with L30I, T31R, L47V, L94N
B16: 375_G07 (antibody, V domains shown)
VH: B1 VH with S30D, K58T, G59S
VL: B1 VL with T31S, L47V, R54L
B17: 370_E07 (antibody, V domains shown)
VH: B1 VH with S30D, G50N, S55G, K58T
VL: B1 VL with L94N
B18: 365_F07 (antibody, V domains shown)
VH: B1 VH with A49S, G50N, S55G, G59S, H106A
VL: B1 VL with T31S, L33V, L47V
B19: 376_A06 (antibody, V domains shown)
VH: B1 VH with S30D, A49S, K58T, G59S, H106A
VL: B1 VL with T31S, L47V, A50Y, A51V, T52S, S53N, L94N
B20: 372_D04 (antibody, V domains shown)
VH: B1 VH with G50N, K58T
VL: B1 VL with R54L, A55H
B21: 367_A01 (antibody, V domains shown)
VH: B1 VH with G50S, S55G, K58T
VL: B1 VL
B22: 365_D05 (antibody, V domains shown)
VH: B1 VH with S30D, S55G, K58T, G59S
VL: B1 VL with L33V, D93N, L94S
B23: 374_A11 (antibody, V domains shown)
VH: B1 VH with S31D, G50N
VL: B1 VL with T31S, L33V, L47V, D93S, L94S
B24: 375_E10 (antibody, V domains shown)
VH: B1 VH with A49S, S55G, K58T, G59S, S99G, T101N, H106A
VL: B1 VL with T31S, L47V, L94N
B25: 376_F06 (antibody, V domains shown)
VH: B1 VH with S33G, A49S, S55G, K58T, S99G, T101N
VL: B1 VL with L33V, L47V, D93E, L94T
B26: 376_F01 (antibody, V domains shown)
VH: B1 VH with S31D, S55G, G59S, S99G, T101N, H106A
VL: not shown
B27: 376_H01 (antibody, V domains shown)
VH: B1 VH with S31D, S55G, S99G, T101N, H106A
VL: B1 VL with D93S, L94T
B28: 375_F02 (antibody, V domains shown)
VH: B1 VH with G50S, K58T, G59S, S99G, T101N
VL: B1 VL with T31S, L94S
B29: 376_H11 (antibody, V domains shown)
VH: B1 VH with S30D, A49S, G50N, S55G, K58T, S99G, T101N, H106A
VL: B1 VL with L30S, T31R, A51V, R54L, D93E, L94S
B30: 375_G05 (antibody, V domains shown)
VH: B1 VH with S55G, K58T, G59S, S99G, T101N, H106A
VL: B1 VL with L30V, T31S, A51V, L94S
B31: 376_C08 (antibody, V domains shown)
VH: B1 VH with S30D, K58T, S99G, T101N
VL: not shown
B32: 375_H05 (antibody, V domains shown)
VH: B1 VH with A49S, G50N, S55G, K58T, S99G, T101N, H106A
VL: B1 VL with T31S, L33V, L94T

The target in one assay is Human ACVR2A (on cells) (human, UniProt P27037 20-513). The assay can be described thus: cell-based or functional assay.
Sequence of Human ACVR2A (on cells) (P27037 20-513): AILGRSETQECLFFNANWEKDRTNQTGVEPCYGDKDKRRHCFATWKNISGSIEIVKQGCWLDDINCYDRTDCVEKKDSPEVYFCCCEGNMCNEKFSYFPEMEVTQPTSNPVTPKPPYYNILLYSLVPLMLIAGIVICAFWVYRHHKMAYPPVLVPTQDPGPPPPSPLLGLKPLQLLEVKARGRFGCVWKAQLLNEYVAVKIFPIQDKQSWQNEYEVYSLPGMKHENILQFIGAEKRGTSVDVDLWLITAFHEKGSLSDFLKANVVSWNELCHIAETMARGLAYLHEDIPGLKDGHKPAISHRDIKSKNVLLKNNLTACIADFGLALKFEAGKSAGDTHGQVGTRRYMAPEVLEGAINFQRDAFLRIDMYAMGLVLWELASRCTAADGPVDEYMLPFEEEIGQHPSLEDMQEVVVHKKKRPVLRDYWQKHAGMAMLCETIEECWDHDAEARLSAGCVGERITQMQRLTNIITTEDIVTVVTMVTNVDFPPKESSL
Turning to B1, the “Phospho-SMAD3 Human Skeletal Muscle GDF8 (AlphaLisa, primary human myotubes)” value is 0.0042.

On to B2, for which the “Phospho-SMAD3 Human Skeletal Muscle GDF8 (AlphaLisa, primary human myotubes)” value was 0.0244.

Take B3: the “Phospho-SMAD3 Human Skeletal Muscle GDF8 (AlphaLisa, primary human myotubes)” value was determined as 0.0076.

Turning to B4, the “Phospho-SMAD3 Human Skeletal Muscle GDF8 (AlphaLisa, primary human myotubes)” value stood at 0.012.

For the molecule B5, the “Phospho-SMAD3 Human Skeletal Muscle GDF8 (AlphaLisa, primary human myotubes)” value worked out at 0.0008.

For B6, the “Phospho-SMAD3 Human Skeletal Muscle GDF8 (AlphaLisa, primary human myotubes)” value turned out to be 0.0086.

As for B7, the “Phospho-SMAD3 Human Skeletal Muscle GDF8 (AlphaLisa, primary human myotubes)” value was found to be 0.0266.

For the molecule B8, the “Phospho-SMAD3 Human Skeletal Muscle GDF8 (AlphaLisa, primary human myotubes)” value was 0.0318.

For B9, the “Phospho-SMAD3 Human Skeletal Muscle GDF8 (AlphaLisa, primary human myotubes)” value was 0.0068.

B10: the “Phospho-SMAD3 Human Skeletal Muscle GDF8 (AlphaLisa, primary human myotubes)” value turned out to be 0.0005.

In the case of B11, the “Phospho-SMAD3 Human Skeletal Muscle GDF8 (AlphaLisa, primary human myotubes)” value turned out to be 0.0059.

On to B12, for which the “Phospho-SMAD3 Human Skeletal Muscle GDF8 (AlphaLisa, primary human myotubes)” value amounted to 0.0049.

For B13, the “Phospho-SMAD3 Human Skeletal Muscle GDF8 (AlphaLisa, primary human myotubes)” value is 0.0063.

With B14, the “Phospho-SMAD3 Human Skeletal Muscle GDF8 (AlphaLisa, primary human myotubes)” value came to 0.0102.

As to B15, the “Phospho-SMAD3 Human Skeletal Muscle GDF8 (AlphaLisa, primary human myotubes)” value was 0.0124.

For the molecule B16, the “Phospho-SMAD3 Human Skeletal Muscle GDF8 (AlphaLisa, primary human myotubes)” value was 0.0112.

Consider B17, for which the “Phospho-SMAD3 Human Skeletal Muscle GDF8 (AlphaLisa, primary human myotubes)” value stood at 0.0046.

In the case of B18, the “Phospho-SMAD3 Human Skeletal Muscle GDF8 (AlphaLisa, primary human myotubes)” value worked out at 0.011.

Consider B19, for which the “Phospho-SMAD3 Human Skeletal Muscle GDF8 (AlphaLisa, primary human myotubes)” value was found to be 0.0043.

On to B20, for which the “Phospho-SMAD3 Human Skeletal Muscle GDF8 (AlphaLisa, primary human myotubes)” value was 0.0114.

For the molecule B21, the “Phospho-SMAD3 Human Skeletal Muscle GDF8 (AlphaLisa, primary human myotubes)” value was 0.0065.

For B22, the “Phospho-SMAD3 Human Skeletal Muscle GDF8 (AlphaLisa, primary human myotubes)” value is 0.0209.

As for B23, the “Phospho-SMAD3 Human Skeletal Muscle GDF8 (AlphaLisa, primary human myotubes)” value is 0.0086.

In another assay the target is ACVR2A on primary human myotubes (human, UniProt P27037 20-513). The assay is described as follows: cell-based or functional assay.
Sequence of ACVR2A on primary human myotubes (P27037 20-513): as above
In the case of B24, the “Phospho-SMAD3 Human Skeletal Muscle GDF8” value amounted to 0.0091.

Regarding B25, the “Phospho-SMAD3 Human Skeletal Muscle GDF8” value amounted to 0.0544.

Regarding B26, the “Phospho-SMAD3 Human Skeletal Muscle GDF8” value is 0.595.

Regarding B27, the “Phospho-SMAD3 Human Skeletal Muscle GDF8” value was determined as 0.0562.

Regarding B28, the “Phospho-SMAD3 Human Skeletal Muscle GDF8” value is 0.0076.

With B29, the “Phospho-SMAD3 Human Skeletal Muscle GDF8” value was 0.0042.

For the molecule B30, the “Phospho-SMAD3 Human Skeletal Muscle GDF8” value was determined as 0.0052.

Consider B31, for which the “Phospho-SMAD3 Human Skeletal Muscle GDF8” value was 0.0605.

Turning to B32, the “Phospho-SMAD3 Human Skeletal Muscle GDF8” value was determined as 0.0346.
